The test deals with NaV1.5 voltage-gated sodium channel α subunit (human SCN5A) (human) (UniProt Q14524).

Turning to “Sodium channel β1 subunit carrying p.D103V (β1^D103V) (from UniProt Q07699-1 19-218) (natural protein)”, the positive shift of the voltage dependence of activation (V1/2) of the NaV1.5 sodium current with β1^D103V compared to β1^WT, whole cell patch clamp in transfected HEK-293 tsA201 cells came out at 3.37 mV.

Source of the values: paper PMC7550680.
